Here are results for 41 sequences from the nanobody polyreactivity screen of Harvey et al. (2022).

The nature of this series: yeast display, Sf9 membrane polyspecificity reagent, FACS + sequencing; frameworks hold sequencing errors. The method in brief: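 A synthetic nanobody library was expressed on Saccharomyces cerevisiae BJ5465 by galactose induction for 36–48 hours. The library was stained for 1 hour at 4 °C with 10% biotinylated, detergent-solubilized Sf9 membrane reagent and enriched with streptavidin microbeads before FACS. Low and high (top ~1%) gates were set on anti-HA fluorescence for expression and streptavidin fluorescence for reagent binding, and each polyreactivity label reflects the gate of origin.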
As for “QVQRVESGGGLVQAGGSLRLTSAGSGLTFILNAMGWYRQAPGKEREFVAAISRSGVRTYYADSVKGRFTISRDNAKNTVYLQMNSLKPEDTAVYYCAAAAQRGSKPRVELDYWGQGSQVTVSS”, the “polyreactivity (PSR sort gate)” value was “high polyreactivity”.

Turning to “QVQRVESGGGLVQAGGTLRLSCAASGFIFGYYAMGWSRQAPGKERELVAAISRSGGRTYYADSVKGRFTISRANAKNTVYLQLNSLKPEDTAVYYCAKSGYQYADDMDYLGQGTQVTVSS”, the “polyreactivity (PSR sort gate)” value is on record as “high polyreactivity”. Turning to “QVQRVESGGGLVQEGGSLRLSCAASGLIFAIYAMGWYRQAPGKDRELVAAMRWSGASTYADSVKGRFTNSRDNAYNTVYLQMISLKREDTAVYYCAADDLLDYDYWGQGTQVTVSS”, the “polyreactivity (PSR sort gate)” value is listed as “low polyreactivity”. On to “QVQRVESGGRLVQAGGSLRLSCAASGFIFRYYAMGWYRQAPGKERELVAAISSRGGTTYYADSVKGRFTISRDNPNNTVYLQMNSLKPEDTPVDYGAAGGGRFRHGGRDYWGQGTQVTVSS”, for which the “polyreactivity (PSR sort gate)” value is listed as “high polyreactivity”. For “QVQRVESGGVLVQAGGSLRLSCAASGGIFYYYTMGWYRQAPGKERELVAAINWSGGSTYYADSVKGRFTISRDNAKNTVYLQMNSLKPEDTAVYYCNAVYRHPVTYGYWGQGTQVTVSS”, the “polyreactivity (PSR sort gate)” value was “high polyreactivity”. For the sequence “QVQRVESGRGLVHAGGRLRLSCAASGSIFTYYPMGWSRPAPGKERELVAAISYSGGTTYYADSVKGRFTISRDNAKNTVYLQMNSLKPEDTAVYYCNVDADYESKWLSVGYDYWGQGTQVTVSS”, the “polyreactivity (PSR sort gate)” value is “low polyreactivity”. Take “QVQRVESGVGLVQAGGSLRLSCAASGLTFLWYAMGWYRQAPGKERELVAAITSGGRTKYADSVKGRFTISRDNAKNTVYLQMNSLKPEDTAVYYCAAYPQWWGYDYWGQGTQVTVSS”: the “polyreactivity (PSR sort gate)” value was “high polyreactivity”. With “QVQRVESGVGLVQAGGSLRLSCAASGRIFRPYAMGWFRQARGNERELVAAITYSGGSTRYADSVKGRFTLSRDNAKNTVYIQMNSLKPEDTAVYYCAADLSYQDDPRWSYDYWGQGTHVTVSS”, the “polyreactivity (PSR sort gate)” value was “high polyreactivity”. With “QVQRVESGVRLVQAGGSLRLSCASSGSIFRYYTMGWYRQAPGKERELVAAISRSGGSTYYADSVKGRFTISRDNAKNTVYLQMNSLKPVDTGVYYCAARYKRAQGYREGDYWGQGTQVTVSS”, the “polyreactivity (PSR sort gate)” value is listed as “high polyreactivity”. For “QVQRVESWGGLVQAGGSLRLSCAASGSIFDVYTMGWYRQAPGKERELVAAINTGGGSTYYADSVKGRFTISRDNAKNTVYFQMNSLKPEDTAVYYCAAQWWWKRPVRYEYWGQGTLVTVSS”, the “polyreactivity (PSR sort gate)” value was “low polyreactivity”. Take “QVQSVESGGGLVQAGGSLRLSCAASGRTFSIYGMGWYRQAPGKERELVAAISWRSGSTYYADSVKGRFTISRDNAKNTVYLKMNSLKPEDTAVYYCAKRYILGYKPYSYWGQGTQVTVSS”: the “polyreactivity (PSR sort gate)” value is listed as “high polyreactivity”. Take “QVQVVDSGGGLVQAGGSLRLSCAASGLTIVKNVMGWYRQAPGKERELVAAISRRGGSTYYADSVKGRFTISRDNAKNTVYLQMNSLKPEDTAVYYCNAVLNQLSYIYPAVGYWGQGTQVTVSS”: the “polyreactivity (PSR sort gate)” value was “high polyreactivity”. With “QVQVVESGGGFVQAGGSLSLSCAASGSTFPYYVMGCYREAPGKERELVAAISGSGTRTYYADSVKGRFTISRDNAKNTVYLQMNSLKPEDTAVYYCAARKYPQGFDYWGQGTQVTVSS”, the “polyreactivity (PSR sort gate)” value was “low polyreactivity”. For the sequence “QVQVVESGGGLVKAGGSLRLSCAASGGTFGNYAMGWYRQAPRKERELVAAINRSDGGTYYADSVKGRFTISRDNAKNTVYLQMNSLKPEDTAVYYCNAVDFYYDEPYDYWGQGTQVTVSS”, the “polyreactivity (PSR sort gate)” value is on record as “low polyreactivity”.

Consider “QVQVVESGGGLVQAGGSLGLSCAASGSIFGTNAMGWSRQAPGKERELVAAISSSGTSTYYADSVKGRFTISRDKAKNTDYLQMNSLKPEDTAVYYCAAATNWGGEYWGQGTQVTVSS”, for which the “polyreactivity (PSR sort gate)” value is given as “high polyreactivity”. On to “QVQVVESGGGLVQAGGSLRLSCAASGFIFPYYAMGWYRQAPGKEWELVAAISWSGSNTYYADSVKGRFTISRDNAKNTDYLQMNSLKPEATAVYYCAARYSVYYFVQRNGRYDDWGQGTQVTVSS”, for which the “polyreactivity (PSR sort gate)” value is “high polyreactivity”.

Take “QVQVVESGGGLVQAGGSLRLSCAASGFTFILYAMGWYRQAPGKERELVAAISWSGGRTYYADSVKGRFTISRDNAKNTVYLQMNSLKPEDTAVYYCNAPYWTSKSRFDYWGQGTQVTVSS”: the “polyreactivity (PSR sort gate)” value is “low polyreactivity”. Take “QVQVVESGGGLVQAGGSLRLSCAASGGTFGRYTMGWYRQAPGKERELVAAITYGGGSTYYADSVKGRFTISRDNAKNTVYLQMNSLKPEETAVYYCARRGILRGSRYDYWGQGTQVTVSS”: the “polyreactivity (PSR sort gate)” value is on record as “high polyreactivity”. Regarding “QVQVVESGGGLVQAGGSLRLSCAASGRIFGVNAMGWYRQAPGKERELVAVISSGGSTYYADSVKGRFTISRDNAKKTVYLQMNSLKPEDTAVYYCNAVVGRWFPYNLSDYWGQGTQVTVSS”, the “polyreactivity (PSR sort gate)” value is recorded as “low polyreactivity”.

As to “QVQVVESGGGLVQAGGSLRLSCAASGRTFVSYAMGWYRQATGKERELVAAISSSGGRTYYADSVKGRFTISRDNAMNTVYLQMNSLKPEDTAVYYCYAVRFISARYDYWGQGTQVTVSS”, the “polyreactivity (PSR sort gate)” value is recorded as “high polyreactivity”. For “QVQVVESGGGLVQAGGSLRLSCAASGSIFAYYAMGWYRQAPGKERELVAVISSDGSTYYADSVKGRFTISRDNAKNTVYLQMNSLKPEDTAVYYCAAYPGKYSRYNYWGQGTQVTVSS” the value was “high polyreactivity”; for “QVQVVESGGGLVQAGGSLRLSCAASGSTFGHNAMGWYRQAPGKERELVAAIDSGDGTTYADSVKGRFTISRDNAKNTVYLQMNSLKPEDTAVYYCNADGLGGADPEYLWYPVPDYDYWGQGTQVTVSS”, “low polyreactivity”; for “QVQVVESGGGLVQAGGSLRLSCAASGSTFVIYAMGWYRQAPGKEMELVAGITYSGGRTYYADSVKGRFTISRDNAKNTVYLHMNSLKPEDTAVYYCNARSTWPSGRYAHYRRYYYWGQGTQVTVSS”, “high polyreactivity”. For “QVQVVESGGGLVQAGGSLRLSCAPSGRIFQLYAMGRYRQAPRKERELVAVISSGDRTYYADSVKGRFTISRDNAKNTVYLQMNSLKPEDTAVYYCAALGWQSGGSRWHGEYDYWGQGTQVTVSS”, the “polyreactivity (PSR sort gate)” value is listed as “low polyreactivity”. Consider “QVQVVESGGGLVQAGGSLSLSCAASGGIFHSNAMGWYRQAPGKERELVAAISWNTGSTYYADSVKGRFTISRDNAKQTVYLQMNSLKPEDTAVYYCAASYRSPWLRYDYWGQGTQVTVSS”, for which the “polyreactivity (PSR sort gate)” value was “high polyreactivity”. For the sequence “QVQVVESGGGLVQAGGSLSLSCAASGSTVGKYAMGWYRPAPGKERELVASITWSGASTFYADSVKGRFTISRDTAKTTVYLQLNSLKPEDTAVYYCAARSYKSYYIFDYWGQGTQVTVSS”, the “polyreactivity (PSR sort gate)” value is on record as “low polyreactivity”. As to “QVQVVESRGGLVQAGGSLRLSCAASGLIFLGYAMGWYRQAPGKERELVASIRTGGSTSYADSVKGRFTISRDNENNRVYLQMNSLKPEDTAVYYCAADRGRPNLPGDYWGQGSQVTVSS”, the “polyreactivity (PSR sort gate)” value is given as “low polyreactivity”. Turning to “QVRLVESGGGLVQAGCSLRLSCAASGRTFGRYAIGWYRQAPGTERELVAAITGSGGSTYYADSVKGRFTISRDNAKNTVYLQMNSLKPVDTPVYYCNAGWRLGRGYWGQGTQVTLSS”, the “polyreactivity (PSR sort gate)” value is listed as “high polyreactivity”. As for “QVRLVESGGGLVQAGCSRRLSCAATGRFFAYNSMGWYRQAPGKEMEWVAAISSTGGSTYYADSVKGRFTISRDNAKNTVYLQMNSLKTEDTAVYYCAAAWCYRYSSYDYWGQGTQVTVSS”, the “polyreactivity (PSR sort gate)” value was “low polyreactivity”.

Take “QVRLVESGGGLVQAGGRLRLSCAASGRIFSSYSMGWYRQAPGKERELVASISWSGVRTRYADSVKGRFTISRDNAKNTVYLQLNSLKPEDTAVYYCAAVVPYYYRSPSNHMGYWGQGTQVTVSS”: the “polyreactivity (PSR sort gate)” value is given as “high polyreactivity”.

As for “QVRLVESGGGLVQAGGSLRLSCAASGFTFSPYAMGWYRQAPGKERELVAAITSSGGSTYYADSVKGRFTISRDNAKNTVYLQMNSLKPDDTAVSSCAKEIRYSSSVSESDYWGQGTQVSVSS”, the “polyreactivity (PSR sort gate)” value is “high polyreactivity”.

Turning to “QVRLVESGGGLVQAGGSLRLSCAASGRIFQYYAMGWYRQAPGKERELVASITSGGGSTYYADSVKGRFTISRDNAKNTVYVQMNSLKPEDSAVYYCAVDIYNYSNVHYYYWGQGTQVTVSS”, the “polyreactivity (PSR sort gate)” value is reported as “low polyreactivity”. Turning to “QVRLVESGGGLVQAGGSLRLSCAASGSIFDVYAMGCYRQAPGKERELVATISYGDSSTYYADSVKGRFTISRDTAKNTVYLQMNSLKPEDTAVYYCAADYLTAPRWRQWGEMDYWGQGTQVTVSS”, the “polyreactivity (PSR sort gate)” value was “low polyreactivity”. “QVRLVETGGGLVQAGGSLRLSCAASGSTFPHYTMGWYIQAHGKERELVAVISRSGRTYYADSVKGRFTISRDNAKNTFYLQMNSLKPEDTAVYYCDVLVGRLVWSYNHWGQVTQVTVSS”: the “polyreactivity (PSR sort gate)” value is on record as “high polyreactivity”. Turning to “QVWLQESGGGLVQACGSLSLSCAASGTISRDIFMGWYRQAPGKEREFVATIAQGGITNYADSVKGRFTISRDNAKNTVYLQKNSVKPGDTAVYYCEALDGNCYWFYYWGQGTQVTVSS”, the “polyreactivity (PSR sort gate)” value is reported as “high polyreactivity”. In the case of “QYQLVESGGGLVQAGGSLRLSCAASGSTFRYYAMGWYRQAPGKETELVAAISTRGGTTYYADSVKGRFTISRDNAKNTVYLQMNSLKPEDTAVYYCAAEALVPLIYYYWGQGTQVTVSS”, the “polyreactivity (PSR sort gate)” value is listed as “low polyreactivity”. “REQLQESGGGLVQAGGSLRLSCAASGTIFIRGDMGWYRQSPGKEREFVATIDTGSNTYYADSEKGRFTISRDNAINAVYLQMYCLKPGYTAVYYCVVDYQLSGRLRYWGQGTQVTLSS”: the “polyreactivity (PSR sort gate)” value is given as “low polyreactivity”. For “RVHLQESGGGLVQAGGSLRLSCAASGTIFIRGDMGWYRQAPGKEREFVATIDTVSNTYYADSEKGRFTISRDNAKNAVYLQMNCLNPGDTAVYYCVVDYQLAGRLRYWGQGTQVTLSS”, the “polyreactivity (PSR sort gate)” value was “low polyreactivity”.

Take “RVQLQESGGGLVQAGGSLRLSCAASGTIFIRGDMGWYRQAPGKEREFVATIDTGSNTYYADSEKGRFTISRDNAKNAVYLQMNCQQPGDTAVYYCVVDYQLSGRLRYWGQGTQVTLSS”: the “polyreactivity (PSR sort gate)” value was “low polyreactivity”. The same measure for “RVQLQESGGGLVQAGGSLRLSCAPSSTISRYFYMGWYRQAPGKEREFVASITYGASTNYADSVKGRFTISRDNAKNTVYLQMNSLKPEDTAVYYCNAKQQPYGGTDYDYWGQGTQVTVSS”: “low polyreactivity”. Consider “RVQLQESGGGLVQAGGSLRLSCEASGTIFIRGDMGWYRQATGKEREFVATIDTGSNTYYADSEKGRFTISRDNAKNAVYLQMNCLKPGDTAVYYCVVDYQLSGRLRYWGQGTQVTLSS”, for which the “polyreactivity (PSR sort gate)” value is recorded as “low polyreactivity”.
